Reference: patent US20220025373, “COMPOSITIONS AND METHODS RELATED TO NUCLEIC ACID ANTICOAGULANTS” (North Carolina State University, published 2022)

Legend:
Thrombin [1] = target: T1, Thrombin (UniProt P00734;P00734 P00734:328-363,P00734:364-622); assay: EMSA; 5 pmol RNA + 25 pmol protein, 37 C 1 h
Factor Xa [2] = target: T2, Factor Xa (UniProt P00742;P00742 P00742:41-179,P00742:235-488); assay: EMSA; 37 C 1 h
Experimental: (§1) Specificity tests of the Th-RNA origami with two proteins (Factor IXa and Xa) involved in the coagulation cascade and one common protein (bovine serum albumin, BSA) were performed. To test specificity, the RNA origami was incubated with protein at 37° C. for one hour and characterized by native acrylamide gel electrophoresis. The non-aptamer presenting on RNA origami (2HF-RNA-NNNN) was not able to bind to all four proteins (FIG. 25). All seven designs of RNA origami with RNA thrombin aptamers (2HF-RNA-12NN, 1N2N, 2NN1, Fss12, 2HF-2211, 3HF-2NN1, and 4HF-2NN1) show the specificity binding with thrombin as results shown in FIGS. 26-28 and FIGS. 42-45).
(§2) For specificity tests, heat-annealed RNA origami or DNA weave tile (5 pmol) was dissolved in 1× annealing buffer and incubated with protein (25 pmol) at 37° C. for 1 hr. The samples were tested by 6% native acrylamide gel electrophoresis in 1×TBE as running buffer at 150 V for 3 hr. The gels were stained with Ethidium bromide for nucleic acid staining and visualized under a UV lamp. Then, the gels were further stained with Coomassie blue for protein staining and imaged with the ProteinSimple instrument.

Factor IXa [3] = target: T3, Factor IXa (UniProt P00740;P00740 P00740:47-191,P00740:227-461); assay: EMSA; 37 C 1 h
Experimental: as §1, §2

[4] = target: T4, Bovine serum albumin (BSA) (Bos taurus, UniProt P02769 P02769:25-607); assay: EMSA; 37 C 1 h
Experimental: as §1, §2

Factor Xa [5] = target: T2, Factor Xa; assay: EMSA; 5 pmol RNA + 25 pmol protein, 37 C 1 h; details: 2-helix RNA origami with tetraloops and 180 degree kissing loop, no aptamer
Experimental: as §1, §2

Factor IXa [6] = target: T3, Factor IXa; assay: EMSA; 5 pmol RNA + 25 pmol protein, 37 C 1 h; details: 2-helix RNA origami with tetraloops and 180 degree kissing loop, no aptamer
Experimental: as §1, §2

[7] = target: T4, Bovine serum albumin (BSA); assay: EMSA; 5 pmol RNA + 25 pmol protein, 37 C 1 h; details: 2-helix RNA origami with tetraloops and 180 degree kissing loop, no aptamer
Experimental: as §1, §2

Thrombin [8] = target: T1, Thrombin; assay: EMSA; 5 pmol RNA + 25 pmol protein, 1x annealing buffer, 37 C 1 h, 6% native PAGE
[9] = two aptamers (exosite 2 and exosite 1) joined by 31 nt single-stranded linker
[10] = 2-helix RNA origami with exosite 1 aptamer (RNAR9D-14T) and exosite 2 aptamer (Toggle-25t)
[11] = 2-helix RNA origami with exosite 1 and exosite 2 aptamers

T3 sequence (P00740 47-191, chain 1 of 2): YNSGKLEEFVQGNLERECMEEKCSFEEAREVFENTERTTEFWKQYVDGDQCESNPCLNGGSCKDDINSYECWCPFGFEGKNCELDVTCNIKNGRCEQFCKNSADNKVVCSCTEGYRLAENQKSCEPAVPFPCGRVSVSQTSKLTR
T3 sequence (P00740 227-461, chain 2 of 2): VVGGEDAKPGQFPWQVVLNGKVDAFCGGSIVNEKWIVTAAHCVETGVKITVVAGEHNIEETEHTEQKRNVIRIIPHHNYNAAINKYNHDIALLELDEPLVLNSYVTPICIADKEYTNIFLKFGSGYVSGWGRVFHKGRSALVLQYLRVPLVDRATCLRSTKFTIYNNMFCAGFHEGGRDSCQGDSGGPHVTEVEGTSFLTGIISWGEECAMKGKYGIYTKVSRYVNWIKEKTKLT
T2 sequence (P00742 41-179, chain 1 of 2): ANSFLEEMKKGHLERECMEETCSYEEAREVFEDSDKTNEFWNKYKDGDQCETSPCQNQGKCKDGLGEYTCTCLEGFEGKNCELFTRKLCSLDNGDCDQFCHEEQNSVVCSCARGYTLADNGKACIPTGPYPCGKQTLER
T2 sequence (P00742 235-488, chain 2 of 2): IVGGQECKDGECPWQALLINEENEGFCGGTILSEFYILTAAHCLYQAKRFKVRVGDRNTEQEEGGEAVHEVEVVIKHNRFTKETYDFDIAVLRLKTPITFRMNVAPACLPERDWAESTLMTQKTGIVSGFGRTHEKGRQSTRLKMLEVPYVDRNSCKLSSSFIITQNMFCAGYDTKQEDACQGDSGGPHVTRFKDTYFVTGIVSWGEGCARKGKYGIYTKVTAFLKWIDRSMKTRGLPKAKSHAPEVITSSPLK
T4 sequence (P02769 25-607, one chain of several): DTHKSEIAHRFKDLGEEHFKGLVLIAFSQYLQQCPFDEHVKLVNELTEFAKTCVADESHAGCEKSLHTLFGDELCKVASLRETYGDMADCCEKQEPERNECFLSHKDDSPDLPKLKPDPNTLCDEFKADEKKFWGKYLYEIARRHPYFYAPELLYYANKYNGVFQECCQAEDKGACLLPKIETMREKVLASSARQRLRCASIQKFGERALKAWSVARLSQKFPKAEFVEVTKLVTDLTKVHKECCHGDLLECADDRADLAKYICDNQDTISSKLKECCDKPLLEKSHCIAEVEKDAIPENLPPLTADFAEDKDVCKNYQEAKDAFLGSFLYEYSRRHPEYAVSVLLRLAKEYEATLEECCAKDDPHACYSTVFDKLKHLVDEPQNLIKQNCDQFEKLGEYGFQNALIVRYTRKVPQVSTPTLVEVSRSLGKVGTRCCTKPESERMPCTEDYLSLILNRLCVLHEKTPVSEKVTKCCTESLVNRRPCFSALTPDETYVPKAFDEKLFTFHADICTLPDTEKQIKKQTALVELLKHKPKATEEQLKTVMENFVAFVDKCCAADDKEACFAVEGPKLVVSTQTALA

| Binder | binding result (Thrombin [1]) | binding result (Factor Xa [2]; [11]) | binding result (Factor IXa [3]; [11]) | binding result [4, 11] | also measured |
| --- | --- | --- | --- | --- | --- |
| Fss12 (ssRNA, 2'-F at all C and U) RNA: GGGAACAAAGCUGAAGUACUUACCCACCUUACCACUCCACCUCACUCACCUAUUACGGCGGUCGAUCACACAGUUCAAACGUAAUAAGCCAAUGUACGAGGCAGACGACUCGCC | binds | – | – | – | binding result (Factor Xa [2]; [9]): no binding; binding result (Factor IXa [3]; [9]): no binding; binding result [4, 9]: no binding |
| 2HF-RNA-NNNN (ssRNA, 2'-F at all C and U) RNA: GGGAGAUCGAGCGACUUCCGACUUCGGUCGGGAGUCGGGCUAGUCAUCUUCGGAUGAUUAGCCGCUGGUGAAGCCUCCACGCCAGCCUCGGUCUCCCGCAGUAGGAUCGGACUGAAGGAGGCACGGUCCCAGCCGAAGUGUCUUGCUUCGGCAAGGCACUUUGGCUGCUAGACUGGCUGGCUUCGGCCAGCUAGUUUAGGAUUCUAUUGC | – | – | – | – | binding result (Factor Xa [5]): no binding; binding result (Factor IXa [6]): no binding; binding result [7]: no binding; binding result (Thrombin [8]): no binding |
| 2HF-RNA-12NN (ssRNA, 2'-F at all C and U) RNA: GGGAGAUCGAGCGACUUCCGACUUCGGUCGGGAGUCGGGCUAGUCAUCGGGAACAAAGCUGAAGUACUUACCCGAUGAUUAGCCGCUGGUGAAGCCUCCACGCCAGCCUCGGUCUCCCGCAGUAGGAUCGGACUGAAGGAGGCACGGUCCCAGCCGAAGUGUCUGGCGGUCGAUCACACAGUUCAAACGUAAUAAGCCAAUGUACGAGGCAGACGACUCGCCAGGCACUUUGGCUGCUAGACUGGCUGGCUUCGGCCAGCUAGUUUAGGAUUCUAUUGC | binds | – | – | – | binding result (Factor Xa [2]; [10]): no binding; binding result (Factor IXa [3]; [10]): no binding; binding result [4, 10]: no binding |
| 2HF-RNA-1N2N (ssRNA, 2'-F at all C and U) RNA: GGGAGAUCGAGCGACUUCCGACGGGAACAAAGCUGAAGUACUUACCCGUCGGGAGUCGGGCUAGUCAUCUUCGGAUGAUUAGCCGCUGGUGAAGCCUCCACGCCAGCCUCGGUCUCCCGCAGUAGGAUCGGACUGAAGGAGGCACGGUCCCAGCCGAAGUGUCUGGCGGUCGAUCACACAGUUCAAACGUAAUAAGCCAAUGUACGAGGCAGACGACUCGCCAGGCACUUUGGCUGCUAGACUGGCUGGCUUCGGCCAGCUAGUUUAGGAUUCUAUUGC | binds | no binding | no binding | no binding | – |
| 2HF-RNA-2NN1 (ssRNA, 2'-F at all C and U) RNA: GGGAGAUCGAGCGACUUCCGACUUCGGUCGGGAGUCGGGCUAGUCAUCUUCGGAUGAUUAGCCGCUGGUGAAGCCUCCACGCCAGCCUCGGUCUCCCGCAGUAGGAUCGGACUGAAGGAGGCACGGUCCCAGCCGAAGUGUCUUGCGGGAACAAAGCUGAAGUACUUACCCGCAAGGCACUUUGGCUGCUAGACUGGCUGGCGGCGGUCGAUCACACAGUUCAAACGUAAUAAGCCAAUGUACGAGGCAGACGACUCGCCGCCAGCUAGUUUAGGAUUCUAUUGC | binds | no binding | no binding | no binding | – |
